Patent publication US20220073631A1 (QYUNS THERAPEUTICS, published 2022)

Key:
[1] = molecular target: T1, extracellular domain of marmoset IL-4Rα (Gly 24-His 232) with C-terminus his-tag (marmoset); assay: SPR, Biacore T200, by the methods of Example 2
T1 construct: range 24-232; Made in HEK 293F cells and purified on nickel

[2] = molecular target: IL-4Rα on human cells (HEK Blue IL-4/IL-13, A549, TF-1, HFL-1, PBMCs) (human, UniProt P24394 26-825); assay: cell-based or functional assay
hIL-4Rα-Mu241 = molecular target: T2, hIL-4Rα-Mu241 (human, UniProt P24394 26-232); assay: SPR, Biacore T200, by the methods of Example 2
T2 construct: Printed positions fit the mature protein; also called D67A/V68R/V69F; not shown: C-terminal his-tag
T2 chain: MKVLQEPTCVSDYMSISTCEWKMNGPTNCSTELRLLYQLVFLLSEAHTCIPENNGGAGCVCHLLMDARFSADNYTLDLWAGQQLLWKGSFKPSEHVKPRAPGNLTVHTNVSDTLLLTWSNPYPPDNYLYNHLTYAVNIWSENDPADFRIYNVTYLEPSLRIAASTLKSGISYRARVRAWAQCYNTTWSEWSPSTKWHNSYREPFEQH
Protocol: (§1) The protein A was chemically coupled to a CM5 chip, and an appropriate amount of the antibody was immobilized by a capture method such that the Rmax was less than 50 RU and the flow rate for the capture was 10 μl/min. The antigen was subject to gradient dilution, and the flow rate in the instrument was switched to 30 μl/min. The antigen was flowed through the reference channel and the channel with the immobilized antibody sequentially in an ascending order of concentration, and the running buffer was flowed through as a negative control. After each binding and dissociation was complete, the chip was regenerated with glycine, pH 1.5. Fitting was performed with the build-in software in the instrument according to a 1:1 binding model. The binding rate constant kₐ, the dissociation rate constant kd, and the equilibrium dissociation constant KD values of the antibody were calculated. Dupilumab was obtained by purchasing a commercially available medicine.
(§2) To further narrow down the key amino acids that PD2-31 binds to, multiple mutants of hIL-4Rα were designed in Loop 2 (V40FLLSEA46) and Loop 3 (M65[…]73) (Table 2). The wild-type hIL-4Rα (hIL-4Rα-ECD) and hIL-4Rα mutants were prepared using standard techniques. Briefly, the expression plasmids containing the extracellular domain of wild-type hIL-4Rα and different mutated hIL-4Rα were constructed and transfected into HEK 293F cells. After expression, the extracellular domain of wild-type hIL-4Rα and hIL-4Rα mutants with C-terminus his-tag were purified by Nickel chromatography. Purified proteins of wild-type hIL-4Rα and hIL-4Rα mutants were analyzed for interaction with PD2-31 and Dupilumab. The interaction was studied by Biacore T200, according to the methods in Example 2.

hIL-4Rα-Mu243 = molecular target: T3, hIL-4Rα-Mu243 (human, UniProt P24394 26-232); assay: SPR, Biacore T200, by the methods of Example 2
T3 construct: Printed positions fit the mature protein; also called V69F/S70Q/A71L; not shown: C-terminal his-tag
T3 chain: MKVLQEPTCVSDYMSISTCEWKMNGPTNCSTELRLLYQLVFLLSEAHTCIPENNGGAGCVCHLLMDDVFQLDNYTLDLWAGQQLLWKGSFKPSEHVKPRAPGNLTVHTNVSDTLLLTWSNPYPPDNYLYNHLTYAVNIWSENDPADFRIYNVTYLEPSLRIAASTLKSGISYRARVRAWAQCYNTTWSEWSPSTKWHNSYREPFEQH
Protocol: as §1, §2

Kd [1]: ~0.1 nM | IC50, IL-4-induced CCL-11 release activity in HFL-1 cells (FIG. 7(A)) [2]: 43.1 ng/mL | IC50, IL-4-induced CCL-17 release activity in A549 cells (FIG. 5(A)) [2]: 32.6 ng/mL | IC50, IL-4-induced CCL-17 release activity in PBMCs (FIG. 9(A)) [2]: 24.8 ng/mL | IC50, IL-4-induced STAT6 phosphorylation activity in HEK Blue IL-4/IL-13 cells (FIG. 4(A)) [2]: 3.19 ng/mL | IC50, IL-4-induced proliferation activity of TF-1 cells (FIG. 6(A)) [2]: 13.9 ng/mL | IC50, IL-13-induced CCL-11 release activity in HFL-1 cells (FIG. 7(C)) [2]: 38.5 ng/mL | IC50, IL-13-induced CCL-17 release activity in A549 cells (FIG. 5(C)) [2]: 28.9 ng/mL | IC50, IL-13-induced CCL-17 release activity in PBMCs (FIG. 9(C)) [2]: 68.6 ng/mL | IC50, IL-13-induced STAT6 phosphorylation activity in HEK Blue IL-4/IL-13 cells (FIG. 4(C)) [2]: 8.78 ng/mL | IC50, IL-13-induced proliferation activity of TF-1 cells (FIG. 6(C)) [2]: 15.5 ng/mL | Kd (hIL-4Rα-Mu241): 0.474 nM | koff (hIL-4Rα-Mu241): 6.59e-05 s⁻¹ | kon (hIL-4Rα-Mu241): 139000 M⁻¹ s⁻¹ | Kd (hIL-4Rα-Mu243): 0.131 nM | koff (hIL-4Rα-Mu243): 9.45e-05 s⁻¹ | kon (hIL-4Rα-Mu243): 723000 M⁻¹ s⁻¹
B1: QX005N (PD2-31) (antibody, V domains shown)
VH: EVQLVESGGGLVQPGGSLRLSCAASGIDLRTNSMSWVRQAPGKGLEWVGIIGSSGYMDYASWAKGRFTISRDNSKNTLYLQMNSLRAEDTAVYYCARHGDSSSFALWGQGTLVTVSS
VL: DIQMTQSPSSLSASVGDRVTITCRASESVYKNNRLSWYQQKPGKAPKLLIYEASKVASGVPSRFSGSGSGTDFTLTISSLQPEDFATYYCAGAYRGNIYPFGQGTKVEIK
notes: Humanized from rabbit clone #2, expressed as a full antibody in ExpiCHO-S cells (heavy chain 48.5 kDa, light chain 23.7 kDa)
